Source: the supplement of paper PMC5998384

Columns and labels:
HeLa Kyoto [1] = assay: melting temperature (median over replicates), in situ; higher = more thermally stable
HeLa Kyoto [2] = assay: solubility in G1/S (NP-40 vs SDS abundance) (log2 ratio); higher = more soluble; settings: cell cycle stage: G1/S
HeLa Kyoto [3] = assay: solubility change mitosis vs G1/S (difference of NP-40 vs SDS log2 ratios) (log2 ratio difference); higher = more soluble in mitosis
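Throughout, for melting temperature (median over replicates), in situ: HeLa Kyoto cells synchronized by double thymidine or nocodazole block, proteins quantified by TMT10plex mass spectrometry, three independent biological replicates.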
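Throughout, for solubility change mitosis vs G1/S (difference of NP-40 vs SDS log2 ratios): synchronized HeLa Kyoto cells (double thymidine block for G1/S, nocodazole release for mitosis), protein amounts in NP-40 versus SDS lysates quantified by mass spectrometry, three biological replicates.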
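Throughout, for solubility in G1/S (NP-40 vs SDS abundance): HeLa Kyoto cells arrested at G1/S by double thymidine block, proteins quantified by TMT10plex mass spectrometry in mild NP-40 versus SDS extracts, three biological replicates.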

Chain of PCIF1 (chain, as listed by the source): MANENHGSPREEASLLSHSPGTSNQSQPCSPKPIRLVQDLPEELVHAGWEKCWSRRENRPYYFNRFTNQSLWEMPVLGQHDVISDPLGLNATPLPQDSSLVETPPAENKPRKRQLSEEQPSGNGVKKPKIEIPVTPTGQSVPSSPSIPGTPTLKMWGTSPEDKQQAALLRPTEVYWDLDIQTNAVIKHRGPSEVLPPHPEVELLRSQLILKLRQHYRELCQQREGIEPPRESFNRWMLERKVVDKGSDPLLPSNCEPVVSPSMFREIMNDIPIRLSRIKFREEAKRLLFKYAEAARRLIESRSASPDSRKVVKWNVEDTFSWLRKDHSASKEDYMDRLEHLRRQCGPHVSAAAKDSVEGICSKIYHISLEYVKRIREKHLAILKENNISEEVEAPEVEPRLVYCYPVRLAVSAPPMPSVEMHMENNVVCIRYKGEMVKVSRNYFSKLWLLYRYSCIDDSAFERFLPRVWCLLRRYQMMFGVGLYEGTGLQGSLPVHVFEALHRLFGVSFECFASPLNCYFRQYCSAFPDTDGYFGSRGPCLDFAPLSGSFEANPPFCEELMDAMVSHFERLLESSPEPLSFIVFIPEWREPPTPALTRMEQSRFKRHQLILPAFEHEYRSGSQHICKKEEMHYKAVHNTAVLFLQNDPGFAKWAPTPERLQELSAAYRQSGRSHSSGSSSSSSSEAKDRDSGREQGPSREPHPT
Chain of NEK6 (chain, as listed by the source): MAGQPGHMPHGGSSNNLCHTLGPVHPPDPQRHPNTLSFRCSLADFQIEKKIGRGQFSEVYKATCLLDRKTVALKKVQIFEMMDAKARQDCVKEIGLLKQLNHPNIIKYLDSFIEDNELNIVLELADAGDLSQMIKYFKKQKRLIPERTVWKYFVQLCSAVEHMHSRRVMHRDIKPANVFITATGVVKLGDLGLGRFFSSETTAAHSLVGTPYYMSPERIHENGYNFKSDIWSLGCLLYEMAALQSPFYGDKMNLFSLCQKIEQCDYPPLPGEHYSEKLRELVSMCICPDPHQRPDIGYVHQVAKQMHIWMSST
Chain of PCBD2 (chain, as listed by the source): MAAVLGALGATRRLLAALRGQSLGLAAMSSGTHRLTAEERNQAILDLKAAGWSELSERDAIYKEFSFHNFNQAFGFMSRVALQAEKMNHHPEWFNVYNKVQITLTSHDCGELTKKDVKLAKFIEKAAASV
Chain of WRN (chain, as listed by the source): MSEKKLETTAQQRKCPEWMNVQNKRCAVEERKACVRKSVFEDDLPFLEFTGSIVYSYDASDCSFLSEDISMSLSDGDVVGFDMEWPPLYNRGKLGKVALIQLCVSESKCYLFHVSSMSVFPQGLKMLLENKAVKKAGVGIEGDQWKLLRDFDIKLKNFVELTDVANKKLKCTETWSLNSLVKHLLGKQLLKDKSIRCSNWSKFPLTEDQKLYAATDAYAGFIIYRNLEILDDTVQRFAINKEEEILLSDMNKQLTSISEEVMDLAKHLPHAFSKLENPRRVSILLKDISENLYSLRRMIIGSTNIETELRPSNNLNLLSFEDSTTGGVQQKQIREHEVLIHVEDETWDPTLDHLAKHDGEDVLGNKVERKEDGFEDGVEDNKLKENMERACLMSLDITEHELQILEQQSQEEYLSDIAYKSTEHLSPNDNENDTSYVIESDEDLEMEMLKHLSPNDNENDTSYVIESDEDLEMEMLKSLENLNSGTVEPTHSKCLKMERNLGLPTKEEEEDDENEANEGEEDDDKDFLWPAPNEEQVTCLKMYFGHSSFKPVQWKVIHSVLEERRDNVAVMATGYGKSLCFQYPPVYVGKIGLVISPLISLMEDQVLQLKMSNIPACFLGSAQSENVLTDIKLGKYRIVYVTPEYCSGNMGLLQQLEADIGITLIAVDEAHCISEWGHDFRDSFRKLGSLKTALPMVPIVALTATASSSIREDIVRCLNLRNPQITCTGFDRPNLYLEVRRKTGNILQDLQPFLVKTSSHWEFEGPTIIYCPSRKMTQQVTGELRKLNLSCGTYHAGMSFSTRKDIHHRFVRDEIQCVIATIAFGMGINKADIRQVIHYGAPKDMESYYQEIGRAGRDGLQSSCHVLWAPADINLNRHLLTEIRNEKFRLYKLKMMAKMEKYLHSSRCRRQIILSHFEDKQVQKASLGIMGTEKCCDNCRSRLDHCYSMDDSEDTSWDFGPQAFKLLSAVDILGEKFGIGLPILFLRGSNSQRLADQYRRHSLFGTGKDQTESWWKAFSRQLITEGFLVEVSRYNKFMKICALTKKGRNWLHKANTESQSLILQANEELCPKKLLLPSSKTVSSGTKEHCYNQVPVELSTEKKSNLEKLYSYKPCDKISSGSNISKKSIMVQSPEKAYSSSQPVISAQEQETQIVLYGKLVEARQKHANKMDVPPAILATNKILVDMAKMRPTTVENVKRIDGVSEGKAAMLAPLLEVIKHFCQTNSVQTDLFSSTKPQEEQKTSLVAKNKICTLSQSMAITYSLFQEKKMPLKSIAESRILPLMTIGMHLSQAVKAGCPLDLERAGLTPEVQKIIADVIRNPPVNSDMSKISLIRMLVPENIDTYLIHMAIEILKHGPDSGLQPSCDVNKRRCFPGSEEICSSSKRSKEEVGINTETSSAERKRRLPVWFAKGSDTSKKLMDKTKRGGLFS
Chain of WWC1 (chain, as listed by the source): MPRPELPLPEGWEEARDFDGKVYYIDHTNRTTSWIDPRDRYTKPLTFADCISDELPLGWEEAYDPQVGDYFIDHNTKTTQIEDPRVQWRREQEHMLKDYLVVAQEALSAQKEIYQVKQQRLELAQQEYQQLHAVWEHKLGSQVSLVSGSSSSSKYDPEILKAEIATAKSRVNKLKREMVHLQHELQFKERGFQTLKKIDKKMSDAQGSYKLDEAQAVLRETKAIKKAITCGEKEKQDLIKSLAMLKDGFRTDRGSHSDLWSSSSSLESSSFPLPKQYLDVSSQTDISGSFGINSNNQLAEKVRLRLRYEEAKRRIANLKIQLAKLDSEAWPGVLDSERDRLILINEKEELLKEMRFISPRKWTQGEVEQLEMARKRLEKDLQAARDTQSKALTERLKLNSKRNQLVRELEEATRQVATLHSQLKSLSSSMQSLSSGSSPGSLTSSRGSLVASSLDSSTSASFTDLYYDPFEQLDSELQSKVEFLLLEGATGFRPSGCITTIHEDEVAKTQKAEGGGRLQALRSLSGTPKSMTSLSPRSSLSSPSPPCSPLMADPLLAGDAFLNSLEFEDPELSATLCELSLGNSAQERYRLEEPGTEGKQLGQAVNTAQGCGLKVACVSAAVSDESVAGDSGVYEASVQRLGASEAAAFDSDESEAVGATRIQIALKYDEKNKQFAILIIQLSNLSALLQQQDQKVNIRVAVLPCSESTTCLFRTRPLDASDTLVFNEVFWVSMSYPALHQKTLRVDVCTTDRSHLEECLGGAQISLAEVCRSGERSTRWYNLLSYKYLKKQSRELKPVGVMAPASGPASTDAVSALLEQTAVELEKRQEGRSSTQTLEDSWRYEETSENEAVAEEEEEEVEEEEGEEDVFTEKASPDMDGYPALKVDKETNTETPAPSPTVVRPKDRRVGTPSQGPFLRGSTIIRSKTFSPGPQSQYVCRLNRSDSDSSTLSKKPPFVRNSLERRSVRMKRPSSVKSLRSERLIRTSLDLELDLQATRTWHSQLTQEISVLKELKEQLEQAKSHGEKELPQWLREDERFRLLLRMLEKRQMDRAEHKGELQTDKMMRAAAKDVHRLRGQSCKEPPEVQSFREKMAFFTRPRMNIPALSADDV

Row | Substance | melting temperature (HeLa Kyoto [1]; cell cycle stage: G1/S) [°C] | melting temperature (HeLa Kyoto [1]; cell cycle stage: mitosis) [°C] | solubility in G1/S (log2) (HeLa Kyoto [2]) | solubility change mitosis (log2) (HeLa Kyoto [3])
1 | ASAP2 | 50.7 | 51.4 | 0.122 | -0.37
2 | ATG2B |  | 53.4 | -0.312 | 0.00813
3 | CEP250 | 51 | 50.8 | -0.0371 | 0.272
4 | KIF13B | 50.2 | 50.3 | -0.0369 | -0.193
5 | MAAAAPGNGRASAPRLLLLFLVPLLWAPAAVRAGPDEDLSHRNKEPPAPAQQLQPQPVAVQGPEPARVEKIFTPAAPVHTNKEDPATQTNLGFIHAFVAAISVIIVSELGDKTFFIAAIMAMRYNRLTVLAGAMLALGLMTCLSVLFGYATTVIPRVYTYYVSTVLFAIFGIRMLREGLKMSPDEGQEELEEVQAELKKKDEEFQRTKLLNGPGDVETGTSITVPQKKWLHFISPIFVQALTLTFLAEWGDRSQLTTIVLAAREDPYGVAVGGTVGHCLCTGLAVIGGRMIAQKISVRTVTIIGGIVFLAFAFSALFISPDSGF [TMEM165] | 60.8 | 56.9 | 0.0487 | -0.178
6 | MAAAPQAPGRGSLRKTRPLVVKTSLNNPYIIRWSALESEDMHFILQTLEDRLKAIGLQKIEDKKKKNKTPFLKKESREKCSIAVDISENLKEKKTDAKQQVSGWTPAHVRKQLAIGVNEVTRALERRELLLVLVCKSVKPAMITSHLIQLSLSRSVPACQVPRLSERIAPVIGLKCVLALAFKKNTTDFVDEVRAIIPRVPSLSVPWLQDRIEDSGENLETEPLESQDRELLDTSFEDLSKPKRKLADGRQASVTLQPLKIKKLIPNPNKIRKPPKSKKATPK [RPP38] | 53.1 | 51.7 | 0.342 | -0.0549
7 | MAAFRDIEEVSQGLLSLLGANRAEAQQRRLLGRHEQVVERLLETQDGAEKQLREILTMEKEVAQSLLNAKEQVHQGGVELQQLEAGLQEAGEEDTRLKASLLQLTRELEELKEIEADLERQEKEVDEDTTVTIPSAVYVAQLYHQVSKIEWDYECEPGMVKGIHHGPSVAQPIHLDSTQLSRKFISDYLWSLVDTEW [SPC24] | 49.2 | 49.4 | -0.0462 | 0.363
8 | MAAGKFASLPRNMPVNHQFPLASSMDLLSSRSPLAEHRPDAYQDVSIHGTLPRKKKGPPPIRSCDDFSHMGTLPHSKSPRQNSPVTQDGIQESPWQDRHGETFTFRDPHLLDPTVEYVKFSKERHIMDRTPEKLKKELEEELLLSSEDLRSHAWYHGRIPRQVSENLVQRDGDFLVRDSLSSPGNFVLTCQWKNLAQHFKINRTVLRLSEAYSRVQYQFEMESFDSIPGLVRCYVGNRRPISQQSGAIIFQPINRTVPLRCLEEHYGTSPGQAREGSLTKGRPDVAKRLSLTMGGVQAREQNLPRGNLLRNKEKSGSQPACLDHMQDRRALSLKAHQSESYLPIGCKLPPQSSGVDTSPCPNSPVFRTGSEPALSPAVVRRVSSDARAGEALRGSDSQLCPKPPPKPCKVPFLKVPSSPSAWLNSEANYCELNPAFATGCGRGAKLPSCAQGSHTELLTAKQNEAPGPRNSGVNYLILDDDDRERPWEPAAAQMEKGQWDKGEFVTPLLETVSSFRPNEFESKFLPPENKPLETAMLKRAKELFTNNDPKVIAQHVLSMDCRVARILGVSEEMRRNMGVSSGLELITLPHGHQLRLDIIERHNTMAIGIAVDILGCTGTLEDRAATLSKIIQVAVELKDSMGDLYSFSALMKALEMPQITRLEKTWTALRHQYTQTAILYEKQLKPFSKLLHEGRESTCVPPNNVSVPLLMPLVTLMERQAVTFEGTDMWEKNDQSCEIMLNHLATARFMAEAADSYRMNAERILAGFQPDEEMNEICKTEFQMRLLWGSKGAQVNQTERYEKFNQILTALSRKLEPPPVKQAEL [BCAR3] | 46.3 | 50.1 | 0.00142 | 0.0356
9 | MVLLHVKRGDESQFLLQAPGSTELEELTVQVARVYNGRLKVQRLCSEMEELAEHGIFLPPNMQGLTDDQIEELKLKDEWGEKCVPSGGAVFKKDDIGRRNGQAPNEKMKQVLKKTIEEAKAIISKKQVEAGVCVTMEMVKDALDQLRGAVMIVYPMGLPPYDPIRMEFENKEDLSGTQAGLNVIKEAEAQLWWAAKELRRTKKLSDYVGKNEKTKIIAKIQQRGQGAPAREPIISSEEQKQLMLYYHRRQEELKRLEENDDDAYLNSPWADNTALKRHFHGVKDIKWRPR [C21ORF59] |  |  | 0.335 | 0.0264
10 | MVMAALSLVAACWGRAAADESVQLPAAPGSSVRARETMVSVTMATSEWIQFFKEAGIPPGPAVNYAVMFVDNRIQKSMLLDLNKEIMNELGVTVVGDIIAILKHAKVVHRQDMCKAATESVPCSPSPLAGEIRRGTSAASRMITNSLNHDSPPSTPPRRPDTSTSKISVTVSNKMAAKSAKATAALARREEESLAVPAKRRRVTAEMEGKYVINMPKGTTPRTRKILEQQQAAKGLHRTSVFDRLGAETKADTTTGSKPTGVFSRLGATPETDEDLAWDSDNDSSSSVLQYAGVLKKLGRGPAKASPQPALTVKAKATSSATTAAAPTLRRLALSSRSGLERKPESLSKVSIIKRLGAAALVPEAQDSQVTSTKSKSSAEVKVTIKRTLVGPRGSSSSEGLGAQMDHAGTVSVFKRLGRRTF [C19ORF47] |  |  | -0.824 | 1.04
11 | MVRTKADSVPGTYRKVVAARAPRKVLGSSTSATNSTSVSSRKAENKYAGGNPVCVRPTPKWQKGIGEFFRLSPKDSEKENQIPEEAGSSGLGKAKRKACPLQPDHTNDEKE [KIAA0101] |  |  | -0.0358 | 0.256
12 | MVVLRSSLELHNHSAASATGSLDLSSDFLSLEHIGRRRLRSAGAAQKKPAATTAKAGDGSSVKEVETYHRTRALRSLRKDAQNSSDSSFEKNVEITEQLANGRHFTRQLARQQADKKKEEHREDKVIPVTRSLRARNIVQSTEHLHEDNGDVEVRRSCRIRSRYSGVNQSMLFDKLITNTAEAVLQKMDDMKKMRRQRMRELEDLGVFNETEESNLNMYTRGKQKDIQRTDEETTDNQEGSVESSEEGEDQEHEDDGEDEDDEDDDDDDDDDDDDDDEDDEDEEDGEEENQKRYYLRQRKATVYYQAPLEKPRHQRKPNIFYSGPASPARPRYRLSSAGPRSPYCKRMNRRRHAIHSSDSTSSSSSEDEQHFERRRKRSRNRAINRCLPLNFRKDELKGIYKDRMKIGASLADVDPMQLDSSVRFDSVGGLSNHIAALKEMVVFPLLYPEVFEKFKIQPPRGCLFYGPPGTGKTLVARALANECSQGDKRVAFFMRKGADCLSKWVGESERQLRLLFDQAYQMRPSIIFFDEIDGLAPVRSSRQDQIHSSIVSTLLALMDGLDSRGEIVVIGATNRLDSIDPALRRPGRFDREFLFSLPDKEARKEILKIHTRDWNPKPLDTFLEELAENCVGYCGADIKSICAEAALCALRRRYPQIYTTSEKLQLDLSSINISAKDFEVAMQKMIPASQRAVTSPGQALSTVVKPLLQNTVDKILEALQRVFPHAEFRTNKTLDSDISCPLLESDLAYSDDDVPSVYENGLSQKSSHKAKDNFNFLHLNRNACYQPMSFRPRILIVGEPGFGQGSHLAPAVIHALEKFTVYTLDIPVLFGVSTTSPEETCAQVIREAKRTAPSIVYVPHIHVWWEIVGPTLKATFTTLLQNIPSFAPVLLLATSDKPHSALPEEVQELFIRDYGEIFNVQLPDKEERTKFFEDLILKQAAKPPISKKKAVLQALEVLPVAPPPEPRSLTAEEVKRLEEQEEDTFRELRIFLRNVTHRLAIDKRFRVFTKPVDPDEVPDYVTVIKQPMDLSSVISKIDLHKYLTVKDYLRDIDLICSNALEYNPDRDPGDRLIRHRACALRDTAYAIIKEELDEDFEQLCEEIQESRKKRGCSSSKYAPSYYHVMPKQNSTLVGDKRSDPEQNEKLKTPSTPVACSTPAQLKRKIRKKSNWYLGTIKKRRKISQAKDDSQNAIDHKIESDTEETQDTSVDHNETGNTGESSVEENEKQQNASESKLELRNNSNTCNIENELEDSRKTTACTELRDKIACNGDASSSQIIHISDENEGKEMCVLRMTRARRSQVEQQQLITVEKALAILSQPTPSLVVDHERLKNLLKTVVKKSQNYNIFQLENLYAVISQCIYRHRKDHDKTSLIQKMEQEVENFSCSR [ATAD2] |  |  | -3.07 | 2.36
13 | MVYISNGQVLDSRSQSPWRLSLITDFFWGIAEFVVLFFKTLLQQDVKKRRSYGNSSDSRYDDGRGPPGNPPRRMGRINHLRGPSPPPMAGGUGR [SELK] |  |  | 0.000519 | 0.31
14 | MWCLHCNSERTQSLLELELDSGVEGEAPSSETGTSLDSPSAYPQGPLVPGSSLSPDHYEHTSVGAYGLYSGPPGQQQRTRRPKLQHSTSILRKQAEEEAIKRSRSLSESYELSSDLQDKQVEMLERKYGGRLVTRHAARTIQTAFRQYQMNKNFERLRSSMSENRMSRRIVLSNMRMQFSFEGPEKVHSSYFEGKQVSVTNDGSQLGALVSPECGDLSEPTTLKSPAPSSDFADAITELEDAFSRQVKSLAESIDDALNCRSLHTEEAPALDAARARDTEPQTALHGMDHRKLDEMTASYSDVTLYIDEEELSPPLPLSQAGDRPSSTESDLRLRAGGAAPDYWALAHKEDKADTDTSCRSTPSLERQEQRLRVEHLPLLTIEPPSDSSVDLSDRSERGSLKRQSAYERSLGGQQGSPKHGPHSGAPKSLPREEPELRPRPPRPLDSHLAINGSANRQSKSESDYSDGDNDSINSTSNSNDTINCSSESSSRDSLREQTLSKQTYHKEARNSWDSPAFSNDVIRKRHYRIGLNLFNKKPEKGVQYLIERGFVPDTPVGVAHFLLQRKGLSRQMIGEFLGNRQKQFNRDVLDCVVDEMDFSTMELDEALRKFQAHIRVQGEAQKVERLIEAFSQRYCICNPGVVRQFRNPDTIFILAFAIILLNTDMYSPNVKPERKMKLEDFIKNLRGVDDGEDIPREMLMGIYERIRKRELKTNEDHVSQVQKVEKLIVGKKPIGSLHPGLGCVLSLPHRRLVCYCRLFEVPDPNKPQKLGLHQREIFLFNDLLVVTKIFQKKKNSVTYSFRQSFSLYGMQVLLFENQYYPNGIRLTSSVPGADIKVLINFNAPNPQDRKKFTDDLRESIAEVQEMEKHRIESELEKQKGVVRPSMSQCSSLKKESGNGTLSRACLDDSYASGEGLKRSALSSSLRDLSEAGKRGRRSSAGSLESNVEFQPFEPLQPSVLCS [IQSEC1] |  |  | -0.0654 | -0.0422
15 | NEK6 |  |  | 0.1 | -0.09
16 | NISCH |  |  | -0.0187 | 0.0432
17 | PCBD2 |  |  | -0.0388 | 0.0587
18 | PCIF1 |  |  | 0.0856 | -0.0368
19 | PRR12 |  |  | 0.163 | 0.0459
20 | RAI1 |  |  | -0.769 | 0.596
21 | SOGA1 |  |  | -0.0256 | 0.0556
22 | SYNE1 |  |  | -0.526 | 0.198
23 | TAF1 |  |  | -0.408 | 0.0526
24 | WDR81 |  |  | -0.0834 | -0.333
25 | WRN |  |  | -0.339 | 0.124
26 | WWC1 |  |  | -0.00567 | -0.4
27 | WWP1 |  |  | -0.159 | 0.0121
